Results reported in the Human Domainome abundance scans (Beltran et al. 2025).
± gives the uncertainty stated by the source.

B1: TOX high mobility group box family member 3, residues 256 to 323; numbered along this chain, O15405 (parent)
chain: QKPVSAYALFFRDTQAAIKGQNPNATFGEVSKIVASMWDSLGEEQKQVYKRKTEAAKKEYLKALAAYR

Variants of: B1
Test: abundance fitness (aPCA) (normalised: wild type 0, dead -1); higher = more abundant; growth selection in yeast, the domain comes from the species named
Settings: Homo sapiens
For S36H, the abundance fitness was -0.065 ± 0.11.
In the case of S36T, the abundance fitness is reported as 0.067 ± 0.067.
With S36W the abundance fitness was -0.671 ± 0.13.
With S36Q the abundance fitness was 0.164 ± 0.065.
For S36G, the abundance fitness was 0.01 ± 0.053.
With S36N the abundance fitness was -0.054 ± 0.076.
For S36F, the abundance fitness was -0.242 ± 0.12.
Work on S36M yielded an abundance fitness of -0.097 ± 0.057.
In the case of S36R, the abundance fitness is reported as -0.114 ± 0.056.
S36D gave an abundance fitness of -0.03 ± 0.096.
Work on S36A yielded an abundance fitness of 0.005 ± 0.036.
Work on S36Y yielded an abundance fitness of -0.182 ± 0.08.
In the case of S36P, the abundance fitness is reported as -0.587 ± 0.12.
With S36I the abundance fitness was -0.191 ± 0.094.
S36C showed an abundance fitness of -0.317 ± 0.24.
Work on S36L yielded an abundance fitness of -0.344 ± 0.052.
S36E showed an abundance fitness of 0.044 ± 0.042.
With S36V the abundance fitness was -0.218 ± 0.065.
With D39P the abundance fitness was -0.829 ± 0.11.
D39F gave an abundance fitness of -0.167 ± 0.07.
With D39R the abundance fitness was -0.016 ± 0.05.
In the case of D39S, the abundance fitness is reported as 0.021 ± 0.045.
With D39H the abundance fitness was -0.065 ± 0.09.
In the case of D39E, the abundance fitness is reported as 0.022 ± 0.084.
Variant D39G has an abundance fitness of -0.21 ± 0.065.
Variant D39C has an abundance fitness of -0.055 ± 0.43.
For D39W, the abundance fitness was -0.211 ± 0.074.
Work on D39N yielded an abundance fitness of -0.217 ± 0.21.
With D39L the abundance fitness was -0.224 ± 0.042.
Work on D39A yielded an abundance fitness of -0.026 ± 0.064.
Work on D39T yielded an abundance fitness of -0.292 ± 0.092.
D39V gave an abundance fitness of -0.262 ± 0.071.
With D39M the abundance fitness was -0.191 ± 0.08.
Work on D39Y yielded an abundance fitness of -0.231 ± 0.085.
D39Q gave an abundance fitness of 0.003 ± 0.088.
Variant S31H has an abundance fitness of -0.265 ± 0.11.
S31Y showed an abundance fitness of -0.162 ± 0.12.
With S31L the abundance fitness was -0.637 ± 0.073.
In the case of S31I, the abundance fitness is reported as -0.583 ± 0.15.
S31W gave an abundance fitness of -0.696 ± 0.15.
With S31G the abundance fitness was -0.224 ± 0.057.
With S31R the abundance fitness was -0.062 ± 0.047.
For S31K, the abundance fitness was 0.116 ± 0.084.
For S31F, the abundance fitness was -0.664 ± 0.12.
For S31T, the abundance fitness was -0.118 ± 0.08.
With S31C the abundance fitness was -0.163 ± 0.072.
With S31D the abundance fitness was -0.105 ± 0.27.
For S31N, the abundance fitness was -0.213 ± 0.16.
Variant S31Q has an abundance fitness of -0.063 ± 0.083.
In the case of S31P, the abundance fitness is reported as -1 ± 0.22.
Variant S31E has an abundance fitness of 0.015 ± 0.082.
F27T gave an abundance fitness of 0.098 ± 0.069.
With F27Q the abundance fitness was 0.093 ± 0.079.
In the case of F27G, the abundance fitness is reported as -0.071 ± 0.047.
In the case of F27K, the abundance fitness is reported as 0.258 ± 0.061.
With F27V the abundance fitness was 0.004 ± 0.049.
F27A gave an abundance fitness of 0.249 ± 0.057.
F27C showed an abundance fitness of -0.188 ± 0.095.
Work on F27R yielded an abundance fitness of 0.077 ± 0.047.
For F27W, the abundance fitness was -0.129 ± 0.053.
F27E gave an abundance fitness of 0.162 ± 0.072.
Variant F27D has an abundance fitness of 0.133 ± 0.068.
Variant F27S has an abundance fitness of 0.154 ± 0.051.
With F27I the abundance fitness was -0.071 ± 0.22.
F27H gave an abundance fitness of 0.182 ± 0.094.
For F27Y, the abundance fitness was 0.029 ± 0.11.
With F27L the abundance fitness was 0.051 ± 0.041.
For F27N, the abundance fitness was 0.295 ± 0.085.
With G42W the abundance fitness was -0.858 ± 0.14.
G42F gave an abundance fitness of -1.05 ± 0.32.
G42K showed an abundance fitness of -0.037 ± 0.077.
Work on G42R yielded an abundance fitness of -0.275 ± 0.052.
G42D gave an abundance fitness of 0.067 ± 0.085.
Work on G42C yielded an abundance fitness of 0.04 ± 0.085.
With G42V the abundance fitness was -0.59 ± 0.079.
In the case of G42S, the abundance fitness is reported as 0.086 ± 0.048.
Variant G42Y has an abundance fitness of -0.525 ± 0.15.
Variant G42Q has an abundance fitness of -0.153 ± 0.09.
Variant G42M has an abundance fitness of -0.613 ± 0.068.
G42H gave an abundance fitness of -0.075 ± 0.11.
Variant G42N has an abundance fitness of 0.108 ± 0.079.
For G42A, the abundance fitness was -0.088 ± 0.052.
V30Y gave an abundance fitness of -0.811 ± 0.17.
V30W gave an abundance fitness of -0.319 ± 0.074.
Work on V30P yielded an abundance fitness of -0.776 ± 0.25.
Work on V30T yielded an abundance fitness of -0.342 ± 0.13.
Work on V30R yielded an abundance fitness of -0.43 ± 0.062.
V30G gave an abundance fitness of -1.04 ± 0.17.
Work on V30E yielded an abundance fitness of -0.453 ± 0.1.
For V30K, the abundance fitness was -0.702 ± 0.15.
Variant V30C has an abundance fitness of -0.309 ± 0.091.
Work on V30S yielded an abundance fitness of -0.635 ± 0.099.
V30I gave an abundance fitness of 0.014 ± 0.11.
V30L showed an abundance fitness of -0.119 ± 0.051.
For V30M, the abundance fitness was -0.162 ± 0.1.
V30H gave an abundance fitness of -0.823 ± 0.21.
Variant V30A has an abundance fitness of -0.896 ± 0.28.
V34L gave an abundance fitness of -0.529 ± 0.069.
Work on V34C yielded an abundance fitness of -0.137 ± 0.093.
In the case of V34Y, the abundance fitness is reported as -0.974 ± 0.22.
For V34R, the abundance fitness was -1.01 ± 0.14.
For V34H, the abundance fitness was -1.06 ± 0.23.
For V34T, the abundance fitness was -0.444 ± 0.11.
Variant V34S has an abundance fitness of -0.638 ± 0.091.
For V34F, the abundance fitness was -0.956 ± 0.17.
In the case of V34D, the abundance fitness is reported as -0.541 ± 0.32.
With V34I the abundance fitness was -0.149 ± 0.09.
Work on V34N yielded an abundance fitness of -0.655 ± 0.27.
Variant V34Q has an abundance fitness of -0.954 ± 0.38.
Variant V34M has an abundance fitness of -0.443 ± 0.092.
Variant V34K has an abundance fitness of -0.922 ± 0.2.
Variant V34E has an abundance fitness of -0.963 ± 0.17.
For V34A, the abundance fitness was -0.012 ± 0.05.
Work on V34P yielded an abundance fitness of -0.689 ± 0.11.
For V34W, the abundance fitness was -0.92 ± 0.15.
V34G showed an abundance fitness of -0.358 ± 0.06.
Variant E43S has an abundance fitness of -0.118 ± 0.051.
For E43W, the abundance fitness was -0.359 ± 0.07.
For E43N, the abundance fitness was -0.374 ± 0.17.
For E43F, the abundance fitness was -0.237 ± 0.079.
E43P showed an abundance fitness of 0.058 ± 0.056.
With E43Q the abundance fitness was -0.002 ± 0.07.
For E43T, the abundance fitness was -0.022 ± 0.06.
With E43H the abundance fitness was -0.27 ± 0.13.
With E43D the abundance fitness was -0.151 ± 0.12.
Work on E43K yielded an abundance fitness of -0.218 ± 0.1.
Variant E43Y has an abundance fitness of 0.076 ± 0.11.
E43I gave an abundance fitness of -0.339 ± 0.18.
E43C gave an abundance fitness of -0.165 ± 0.1.
Work on E43V yielded an abundance fitness of -0.12 ± 0.059.
In the case of E43M, the abundance fitness is reported as -0.255 ± 0.12.
E43R showed an abundance fitness of -0.274 ± 0.075.
For E43G, the abundance fitness was -0.43 ± 0.099.
Work on E43A yielded an abundance fitness of -0.085 ± 0.054.
L41C gave an abundance fitness of -0.592 ± 0.11.
Work on L41I yielded an abundance fitness of -0.187 ± 0.15.
L41P gave an abundance fitness of -0.724 ± 0.2.
For L41A, the abundance fitness was -0.225 ± 0.068.
Variant L41E has an abundance fitness of -0.922 ± 0.16.
Variant L41F has an abundance fitness of -0.507 ± 0.15.
L41M showed an abundance fitness of 0.09 ± 0.079.
Work on L41Y yielded an abundance fitness of -0.902 ± 0.23.
Work on L41Q yielded an abundance fitness of -0.718 ± 0.2.
In the case of L41T, the abundance fitness is reported as -0.298 ± 0.13.
In the case of L41G, the abundance fitness is reported as -0.474 ± 0.07.
L41W gave an abundance fitness of -1.05 ± 0.14.
L41V showed an abundance fitness of -0.29 ± 0.086.
For L41H, the abundance fitness was -0.766 ± 0.19.
Work on L41N yielded an abundance fitness of -1.16 ± 0.46.
In the case of L41D, the abundance fitness is reported as -0.847 ± 0.34.
For L41K, the abundance fitness was -0.931 ± 0.14.
In the case of G28N, the abundance fitness is reported as 0.117 ± 0.16.
For G28I, the abundance fitness was -0.076 ± 0.23.
G28Q gave an abundance fitness of -0.159 ± 0.1.
Work on G28E yielded an abundance fitness of 0.175 ± 0.075.
G28C gave an abundance fitness of -0.046 ± 0.079.
In the case of G28T, the abundance fitness is reported as -0.028 ± 0.086.
In the case of G28R, the abundance fitness is reported as 0.118 ± 0.04.
Variant G28K has an abundance fitness of -0.027 ± 0.073.
For G28W, the abundance fitness was -0.175 ± 0.06.
G28A showed an abundance fitness of -0.096 ± 0.065.
For G28P, the abundance fitness was 0.05 ± 0.049.
Work on G28D yielded an abundance fitness of 0.098 ± 0.083.
G28Y gave an abundance fitness of -0.5 ± 0.15.
Variant G28V has an abundance fitness of -0.12 ± 0.056.
G28S showed an abundance fitness of 0.013 ± 0.046.
Variant G28H has an abundance fitness of -0.026 ± 0.098.
